Among the data in the supplement of paper PMC12042874 are amyloid nucleation score values, retold here.

± gives the uncertainty stated by the source.

This data set can be described thus: amyloid nucleation score (Sup35N fusion, yeast selection) (log enrichment); library NNK1; higher = more nucleation; inactive = no reads after selection. In short, it runs like this:
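Yeast lacking psi expressed peptides of 20 random codons fused to Sup35N, received 100 μM copper sulfate for 24 hours, and were then grown for 7 days at 30°C on medium lacking adenine and uracil. Illumina sequencing of input and output plasmid inserts provided the reads. Nucleation scores are DiMSum log enrichments of output over input, centred on the mode of non-aggregating sequences. Any sequence with under 100 input reads was excluded.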
With PVCHLSGFFFLYDSGCSD, the amyloid nucleation score stood at 4.82 ± 0.069.

PVNLGSDVYYNVRSQCGSMY came in with an amyloid nucleation score of -0.218 ± 0.23.

In turn, PVRQSL came in with an amyloid nucleation score of 0.343 ± 0.33.

PVVCYTVAFVTGSTDVV registered an amyloid nucleation score of -0.139 ± 1.3.

The substance PWADVR yielded an amyloid nucleation score of 0.721 ± 0.38.

In turn, PWDSHSHHSTNRQLRFSSSG showed an amyloid nucleation score of -0.397 ± 0.6.

Take PYFDTEHERVKDH: the amyloid nucleation score stood at 0.398 ± 0.62.

As to PYGIGIFNYLWATGMNLSQA, the amyloid nucleation score was -0.071 ± 0.43.

The substance PYIRVRLFMVVY showed an amyloid nucleation score of 0.659 ± 0.56.

Substance PYLVVVTHMAMASHWDLLLP yielded an amyloid nucleation score of 0.25 ± 0.41.

Substance PYSAQAFERRSHAIRGVSKN registered an amyloid nucleation score of -0.438 ± 0.44.

QAKLPLTIDCMKCGTVGTGR: the amyloid nucleation score was -0.16 ± 0.34.

QANAMNYKEKLFNFRYRGAM had an amyloid nucleation score of -0.722 ± 0.53.

QAVRDVRLCN returned an amyloid nucleation score of -0.073 ± 0.61.

QCWEWIR returned an amyloid nucleation score of -0.564 ± 0.84.

QCYIGVKYHSALVWDHTPEA came in with an amyloid nucleation score of 2.29 ± 0.61.

The substance QDFSVTPHGV had an amyloid nucleation score of 0.228 ± 0.62.

As for QDGLGLTDAVRRTGFVGRTH, the amyloid nucleation score was 0.197 ± 0.86.

As to QFLALVCFCIPRLVRLAGYE, the amyloid nucleation score was -1.35 ± 1.1.

Substance QFMGCRFKLSDSSIWKKSLR displayed an amyloid nucleation score of 0.381 ± 0.64.

Regarding QFPERWDPFLPMSRASRYYH, the amyloid nucleation score worked out at 0.865 ± 0.69.

QFSRTRFFICGLGRSAPAVR showed an amyloid nucleation score of 1.53 ± 0.85.

Take QGGTVCLEF: the amyloid nucleation score was -0.578 ± 0.34.

In the case of QGILCFSIHSSNSMTGNTVF, the amyloid nucleation score was 0.038 ± 0.25.

The substance QGNHVKCVLCRVIPMRCLGL yielded an amyloid nucleation score of -1.41 ± 1.1.

For the substance QGRLYSH, the amyloid nucleation score amounted to 0.438 ± 0.39.

Regarding QGSYLHLSIKWLAFRSMS, the amyloid nucleation score was 0.19 ± 0.4.

In the case of QGTRGRCGFSRDEVECVVRR, the amyloid nucleation score is -0.673 ± 1.

In the case of QHHMVEIWPSDECVEWLVSS, the amyloid nucleation score is -0.034 ± 0.22.

QHLRFSFVPE: the amyloid nucleation score came out at 0.312 ± 0.46.

Take QHPIWCNRSPLTHDRDTVG: the amyloid nucleation score was 0.239 ± 0.24.

Regarding QHVMPWPWWMGLSSLDRWYL, the amyloid nucleation score turned out to be 1.44 ± 0.49.

QHWNGTNNMILYYFPRPSAR came in with an amyloid nucleation score of 5.25 ± 0.065.

Consider QIQIT, for which the amyloid nucleation score came to 0.152 ± 1.

With QIVRTRFNRYR, the amyloid nucleation score is -0.313 ± 1.1.

Turning to QKGLDVVWYDTRSDMYNKIL, the amyloid nucleation score is -0.569 ± 0.7.

In turn, QKRAMYDLGCSFSLFNLCYQ displayed an amyloid nucleation score of 5.28 ± 0.062.

Substance QKYPPRGNRFSLCRITVSCF registered an amyloid nucleation score of 0.22 ± 0.89.

In the case of QKYPSWINFPYF, the amyloid nucleation score is -0.935 ± 0.97.

On to QLAERTGVHCSQFTKWFFKM, for which the amyloid nucleation score stood at 1.72 ± 0.38.

Substance QLEDAVKMGLVEFEGRSHGS showed an amyloid nucleation score of 0.78 ± 0.29.

Substance QLLFRRYKMGIVSRYSVITR came in with an amyloid nucleation score of -0.339 ± 0.53.

As for QLLSISRILLMNRELRRR, the amyloid nucleation score was -0.623 ± 1.

On to QLTVYMFFCYC, for which the amyloid nucleation score worked out at 5.378 ± 0.044.

On to QLVIILERRSWCHIL, for which the amyloid nucleation score came out at 2.42 ± 0.27.

In turn, QMNGWVCCFSQGQRMFVLLM had an amyloid nucleation score of 0.977 ± 0.47.

Substance QMTVGQYSCL displayed an amyloid nucleation score of 0.45 ± 1.1.

Substance QMYYFRCGQFTQGGNTQWLW displayed an amyloid nucleation score of 0.632 ± 0.39.

Substance QNHSGPGLMIRILANAQKWF showed an amyloid nucleation score of -0.93 ± 2.4.

In the case of QNMWIHCWCGRGGMMTREPG, the amyloid nucleation score is 4.73 ± 0.052.

Regarding QPFALNRLYHT, the amyloid nucleation score is -0.591 ± 0.62.

QQVSVLILPALTKGRKVV came in with an amyloid nucleation score of -0.991 ± 0.69.

Consider QRCYCGSCDWLRAMFVCWGL, for which the amyloid nucleation score entry was “inactive”.

With QRKYNDLFWLTSPFSQSMWM, the amyloid nucleation score was 0.997 ± 1.1.

With QRSCNAVTFVGCQYNFFPTE, the amyloid nucleation score turned out to be 7.091 ± 0.05.

QRSLLDDRYNAICSSNTNVE gave an amyloid nucleation score of 0.184 ± 0.35.

As to QRVGCKW, the amyloid nucleation score is -0.771 ± 0.88.

The substance QRVRNRM returned an amyloid nucleation score of 0.03 ± 0.33.
